Reference: US20240368250A1 (Ablynx, published 2024)
Where a chain is given by its changes, count along the chain named. Numbers in names are those of the source.

Legend:
[1] = target: T1, Human serum albumin (HSA; Sigma-Aldrich Cat No. A8763) (human, UniProt P02768 25-609); assay: SPR Biacore 8K+, HSA on CM5 chip, pH 6.0, 1:1 fit
[2] = target: T2, Mouse serum albumin (MSA; Albumin Bioscience Cat No. 2601) (mouse, UniProt P07724 25-608); assay: SPR Biacore 8K+, MSA on CM5 chip, pH 7.4, 1:1 fit
[3] = target: T1, Human serum albumin (HSA; Sigma-Aldrich …); assay: SPR Biacore 8K+, HSA on CM5 chip, pH 7.4, 1:1 fit
[4] = target: T2, Mouse serum albumin (MSA; Albumin …); assay: SPR Biacore 8K+, MSA on CM5 chip, pH 6.0, 1:1 fit
[5] = target: T3, Human FcRn (biotinylated human FcRn) (human, UniProt P61769 21-119); assay: SPR Biacore 8K+, biotinylated hFcRn on SA chip (~500-600 RU), pH 6.0, bivalent analyte fit (KD1)
T3 construct: Biotinylated human FcRn captured on a Series S Sensor Chip SA; also called human neonatal Fc receptor; hFcRn

[6] = target: T3, Human FcRn (biotinylated human FcRn); assay: SPR Biacore 8K+, biotinylated hFcRn on SA chip (~500-600 RU), pH 6.0, bivalent analyte fit (ka1)
[7] = target: T3, Human FcRn (biotinylated human FcRn); assay: SPR Biacore 8K+, biotinylated hFcRn on SA chip (~500-600 RU), pH 6.0, bivalent analyte fit;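 note: analytes were Fc proteins binding to biotinylated human FcRn captured on a Series S streptavidin sensor chip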
[8] = target: T2, Mouse serum albumin (MSA; Albumin …); assay: SPR Biacore 8K+, MSA on C1 chip, pH 7.4, 1:1 fit (off-rate only)
[9] = target: T1, Human serum albumin (HSA; Sigma-Aldrich …); assay: SPR Biacore 8K+, HSA on C1 chip, pH 7.4, 1:1 fit
[10] = target: T3, Human FcRn (biotinylated human FcRn); assay: SPR Biacore 8K+, biotinylated hFcRn on SA chip (~500-600 RU), pH 6.0, bivalent analyte fit (kd1)

B1: TP016 (Fc fusion)
chain 1: DVQLVESGGGLVQPGGSLRLSCAASGLTFSTNPMYWYRQAPGKQRELVASISSRGITNYADSVKGRFTISRDNSKNTVYLQMNSLRPEDTAVYYCRLASLSSGTVYWGQGTLVTVSSDKTHTCPPCPAPEAAGGPSVFLFPPKPKDTLMASRTPEVTCVVVDVSQEDPEVQFNWYVDGVEVHNAKTKPREEQFNSTYRVVSVLTVLAQDWLNGKEYKCKVSNKGLPSSIEKTISKAKGQPREPQVYTLPPCQEEMTKNQVSLWCLVKGFYPSDIAVEWESNGQPENNYKTTPPVLDSDGSFFLYSKLTVDKSRWQEGNVFSCSVMHEALHNAYTQKSLSLSLG
chain 2: DVQLVESGGGVVQPGGSLRLSCAASGFTFRSFGMSWVRQAPGKGPEWVSSISGSGSDTLYADSVKGRFTISRDNSKNTLYLQMNSLRPEDTALYYCTIGGSLSRSSQGTLVTVSSDKTHTCPPCPAPEAAGGPSVFLFPPKPKDTLMASRTPEVTCVVVDVSQEDPEVQFNWYVDGVEVHNAKTKPREEQFNSTYRVVSVLTVLAQDWLNGKEYKCKVSNKGLPSSIEKTISKAKGQPREPQVCTLPPSQEEMTKNQVSLSCAVKGFYPSDIAVEWESNGQPENNYKTTPPVLDSDGSFFLVSKLTVDKSRWQEGNVFSCSVMHEALHNAYTQKSLSLSLG
[1]
  Kd: 3.7 nM
  koff: 0.0004 s⁻¹
  kon: 110000 M⁻¹ s⁻¹
[2]
  Kd: 35 nM
  koff: 0.0042 s⁻¹
  kon: 120000 M⁻¹ s⁻¹
[3]
  Kd: 9.3 nM
  koff: 0.00057 s⁻¹
  kon: 61000 M⁻¹ s⁻¹
[4]
  Kd: 22 nM
  koff: 0.0038 s⁻¹
  kon: 170000 M⁻¹ s⁻¹

B2: TPP-66144 (Fc fusion)
chain 1: DVQLVESGGGVVQAGGSLSISCAASGGSLSNYVLGWFRQAPGKEREFVAAINWRGDITIGPPNVEGRFTISRDNAKNTGYLQMNSLAPDDTALYYCGAGTPLNPGAYIYDWSYDYWGRGTLVTVSSDKTHTCPPCPAPEAAGGPSVFLFPPKPKDTLMISRTPEVTCVVVDVSQEDPEVQFNWYVDGVEVHNAKTKPREEQFNSTYRVVSVLTVLHQDWLNGKEYKCKVSNKGLPSSIEKTISKAKGQPREPQVYTLPPCQEEMTKNQVSLWCLVKGFYPSDIAVEWESNGQPENNYKTTPPVLDSDGSFFLYSKLTVDKSRWQEGNVFSCSVMHEALHNHYTQKSLSLSLGGGGGSGGGSEVQLVESGGGVVQPGGSLRLSCAASGFTFRSFGMSWVRQAPGKGPEWVSSISGSGSDTLYADSVKGRFTISRDNSKNTLYLQMNSLRPEDTALYYCTIGGSLSRSSQGTLVTVSSA
chain 2: DVQLVESGGGVVQAGGSLSISCAASGGSLSNYVLGWFRQAPGKEREFVAAINWRGDITIGPPNVEGRFTISRDNAKNTGYLQMNSLAPDDTALYYCGAGTPLNPGAYIYDWSYDYWGRGTLVTVSSDKTHTCPPCPAPEAAGGPSVFLFPPKPKDTLMISRTPEVTCVVVDVSQEDPEVQFNWYVDGVEVHNAKTKPREEQFNSTYRVVSVLTVLHQDWLNGKEYKCKVSNKGLPSSIEKTISKAKGQPREPQVCTLPPSQEEMTKNQVSLSCAVKGFYPSDIAVEWESNGQPENNYKTTPPVLDSDGSFFLVSKLTVDKSRWQEGNVFSCSVMHEALHNRFTQKSLSLSLG
notes: IgG4 FALA Fc knob-in-hole, C-terminal ALB23002 via 9GS linker
[5]
  Kd: 103 nM
[6]
  kon: 808000 M⁻¹ s⁻¹
[7]
  KD2: 2.86 M
  ka2: 0.017 1/RUs
  kd2: 0.0485 s⁻¹
[8]
  koff: 0.0842 s⁻¹
[9]
  Kd: 51.6 nM
  koff: 0.00124 s⁻¹
  kon: 24000 M⁻¹ s⁻¹
[10]
  koff: 0.0834 s⁻¹

B3: TPP-66152 (Fc fusion)
chain 1: B2 chain 2 with C255Y, S260C, S272W, A274L, V313Y, R341H, F342Y
chain 2: DVQLVESGGGVVQAGGSLSISCAASGGSLSNYVLGWFRQAPGKEREFVAAINWRGDITIGPPNVEGRFTISRDNAKNTGYLQMNSLAPDDTALYYCGAGTPLNPGAYIYDWSYDYWGRGTLVTVSSDKTHTCPPCPAPEAAGGPSVFLFPPKPKDTLMISRTPEVTCVVVDVSQEDPEVQFNWYVDGVEVHNAKTKPREEQFNSTYRVVSVLTVLHQDWLNGKEYKCKVSNKGLPSSIEKTISKAKGQPREPQVCTLPPSQEEMTKNQVSLSCAVKGFYPSDIAVEWESNGQPENNYKTTPPVLDSDGSFFLVSKLTVDKSRWQEGNVFSCSVMHEALHNRFTQKSLSLSLGGGGGSGGGGSGGGGSGGGGSGGGGSGGGGSGGGGSLKEAKEKAIEELKKAGITSDYYFDLINKAKTVEGVNALKDEILKA
notes: IgG4 FALA Fc knob-in-hole, C-terminal ABD via 35GS on chain 2
[5]
  Kd: 1860 nM
[6]
  kon: 57500 M⁻¹ s⁻¹
[8]
  koff: 0.00111 s⁻¹
[9]
  Kd: 2.24 nM
  koff: 0.000201 s⁻¹
  kon: 89500 M⁻¹ s⁻¹
[10]
  koff: 0.107 s⁻¹

B4: TPP-66143 (Fc fusion)
chain 1: DVQLVESGGGVVQAGGSLSISCAASGGSLSNYVLGWFRQAPGKEREFVAAINWRGDITIGPPNVEGRFTISRDNAKNTGYLQMNSLAPDDTALYYCGAGTPLNPGAYIYDWSYDYWGRGTLVTVSSDKTHTCPPCPAPEAAGGPSVFLFPPKPKDTLMISRTPEVTCVVVDVSQEDPEVQFNWYVDGVEVHNAKTKPREEQFNSTYRVVSVLTVLHQDWLNGKEYKCKVSNKGLPSSIEKTISKAKGQPREPQVYTLPPCQEEMTKNQVSLWCLVKGFYPSDIAVEWESNGQPENNYKTTPPVLDSDGSFFLYSKLTVDKSRWQEGNVFSCSVMHEALHNHYTQKSLSLSLGGGGGSGGGGSGGGGSGGGGSGGGGSGGGGSGGGGSEVQLVESGGGVVQAGGSLSISCAASGGSLSNYVLGWFRQAPGKEREFVAAINWRGDITIGPPNVEGRFTISRDNAKNTGYLQMNSLAPDDTALYYCGAGTPLNPGAYIYDWSYDYWGRGTLVTVSSA
chain 2: B2 chain 2
notes: IgG4 FALA Fc knob-in-hole (hole chain H435R, Y436F) with three irrelevant ISVDs; control; also called control ISVD-Fc polypeptide
[5]
  Kd: 941 nM
[6]
  kon: 82800 M⁻¹ s⁻¹
[7]
  KD2: 4.24 M
  ka2: 3.22e-05 1/RUs
  kd2: 0.000136 s⁻¹
[10]
  koff: 0.0779 s⁻¹

B5: TPP-66175 (Fc fusion)
chain 1: B4 chain 1 with M158Y, S160T, T162E
chain 2: B2 chain 2 with M158Y, S160T, T162E
notes: IgG4 FALA Fc (YTE) knob-in-hole with three irrelevant ISVDs; control; also called control ISVD-Fc(YTE) polypeptide
[5]
  Kd: 179 nM
[6]
  kon: 93300 M⁻¹ s⁻¹
[7]
  KD2: 3.98 M
  ka2: 0.0232 1/RUs
  kd2: 0.0922 s⁻¹
[10]
  koff: 0.0167 s⁻¹

B6: TP019 (Fc fusion)
chain 1: DVQLVESGGGLVQPGGSLRLSCAASGLTFSTNPMYWYRQAPGKQRELVASISSRGITNYADSVKGRFTISRDNSKNTVYLQMNSLRPEDTAVYYCRLASLSSGTVYWGQGTLVTVSSDKTHTCPPCPAPEAAGGPSVFLFPPKPKDTLMASRTPEVTCVVVDVSQEDPEVQFNWYVDGVEVHNAKTKPREEQFNSTYRVVSVLTVLAQDWLNGKEYKCKVSNKGLPSSIEKTISKAKGQPREPQVYTLPPCQEEMTKNQVSLWCLVKGFYPSDIAVEWESNGQPENNYKTTPPVLDSDGSFFLYSKLTVDKSRWQEGNVFSCSVMHEALHNAYTQKSLSLSLGGGGGSGGGGSGGGGSGGGGSGGGGSGGGGSGGGGSEVQLVESGGGVVQPGGSLRLSCAASGFTFRSFGMSWVRQAPGKGPEWVSSISGSGSDTLYADSVKGRFTISRDNSKNTLYLQMNSLRPEDTALYYCTIGGSLSRSSQGTLVTVSS
chain 2: DKTHTCPPCPAPEAAGGPSVFLFPPKPKDTLMASRTPEVTCVVVDVSQEDPEVQFNWYVDGVEVHNAKTKPREEQFNSTYRVVSVLTVLAQDWLNGKEYKCKVSNKGLPSSIEKTISKAKGQPREPQVCTLPPSQEEMTKNQVSLSCAVKGFYPSDIAVEWESNGQPENNYKTTPPVLDSDGSFFLVSKLTVDKSRWQEGNVFSCSVMHEALHNAYTQKSLSLSLG
[1]
  Kd: 26 nM
  koff: 0.0016 s⁻¹
  kon: 61000 M⁻¹ s⁻¹
[2]
  Kd: 50 nM
  koff: 0.5 s⁻¹
  kon: 1e+07 M⁻¹ s⁻¹
[3]
  Kd: 51 nM
  koff: 0.0019 s⁻¹
  kon: 36000 M⁻¹ s⁻¹
[4]
  Kd: 50 nM
  koff: 0.5 s⁻¹
  kon: 1e+07 M⁻¹ s⁻¹

B7: TPP-66176 (Fc fusion)
chain: B4 chain 1 with P134S, C260S, W272T
notes: Symmetrical IgG4 FALA Fc fusion without knob-in-hole mutations, four irrelevant ISVDs; control; also called symmetrical ISVD-Fc polypeptide
[5]
  Kd: 1260 nM
[6]
  kon: 62900 M⁻¹ s⁻¹
[7]
  KD2: 4.53 M
  ka2: 3.79e-05 1/RUs
  kd2: 0.000172 s⁻¹
[10]
  koff: 0.0794 s⁻¹
